Test results taken from paper PMC2185068.

Molecular target: Myc-nectin-1-CP (aa 379–518) (human)
Test: pull-down

stoichiometry N: 1
B1: GST-l-afadin-PDZ (aa 1007–1125) (domain or fragment)
chain: PLRKEPEVITVTLKKQNGMGLSIVAAKGAGQDKLGIYVKSVVKGGAADVDGRLAAGDQLLSVDGRSLVGLSQERAAELMTRTSSVVTLEVAKQGAIYHGLATLLNQPSPMMQRISDRRG
